Reference: publication PMC8109800

Assays:
[1] = test system: Chl1 full-length (Chaetomium thermophilum); assay: fluorescence anisotropy; details: no plateau reached, low affinity; 50 mM HEPES pH 8.0, 50 mM NaCl, 0.5 mM TCEP, 25 C; 10 nM FAM-DNA; quadratic fit
[2] = test system: MiniChl1V2 (Chaetomium thermophilum); assay: fluorescence anisotropy; details: 50 mM HEPES pH 8.0, 50 mM NaCl, 0.5 mM TCEP, 25 C; 10 nM FAM-DNA; quadratic fit

For 22-mer ssDNA, which Kd [1] is on record?
Its Kd is > 1000 nM.

What about the Kd [2] of the same substance?
Its Kd is 38 nM.
